In publication PMC3642092 (FEBS Open Bio, 2012) one finds Kd data, which are given here for two molecules.

The experiment concerns the target F-actin (filamentous rabbit skeletal muscle actin) (rabbit, UniProt P68135 1-377). As to the kind of experiment: co-sedimentation.

B1: UTR261^T36C/S242C, oxidised (intra-chain disulphide, locked closed) (domain or fragment)
chain: MAKYGEHEASPDNGQNEFSDIIKSRSDEHNDVQKKCFTKWINARFSKSGKPPINDMFTDLKDGRKLLDLLEGLTGTSLPKERGSTRVHALNNVNRVLQVLHQNNVELVNIGGTDIVDGNHKLTLGLLWSIILHWQVKDVMKDVMSDLQQTNSEKILLSWVRQTTRPYSQVNVLNFTTSWTDGLAFNAVLHRHKPDLFSWDKVVKMSPIERLEHAFSKAQTYLGIEKLLDPEDVAVQLPDKKCIIMYLTSLFEVLPQQVTID
modifications: intra-chain disulphide between the engineered cysteines C36 and C242
By Kd is commonly meant a measure of binding affinity in units of concentration. A lower Kd goes with a tighter complex. For the molecule B1, the equilibrium dissociation constant (Kd) came out at 123 ± 14 µM.

B2: UTR261^T36C/S242C, reduced (domain or fragment)
chain: B1 chain
The molecule B2 gave a Kd of 74.8 ± 19 µM.
